In patent CN113546252A:

Target: 人PCSK9-D347Y (human) (UniProt Q8NBP7)
Experiment: cell-based or functional assay

促LDL内吞 (HepG2细胞LDL摄取法) EC50 [µg/mL] | Substance
0.151 | Evolocumab (antibody)
0.0927 | JS002 (antibody)
